Results reported in CN117069831A (SHENZHEN BGI LIFE SCIENCE RES INSTITUTE, dated 2023).

B1: R-30 (VHH)
VHH: QVQLQESGGGLVQSGGSLRLSCTASGGIIRLNSMGWYRQAPGKQREPVATIVSDVGTNYADSVKGRFTISRDNAKNTIYLQMNSLKFEDTAVYYCVADRAFVLRGEYEYWGQGTQVTVSS
notes: also called 第一株RBD纳米抗体R-30
B2: S1-24 (VHH)
VHH: QVQLQESGGGLVQSGGSLRLSCAASGGVSRLNSMGWYRQAQGKQRELVATIVNDVGTNYADSVKGRFTISRDNAANTVYLLMNSLKFEDTAVYNCVADRAFVLRGEYEYWGQGTQVTVSS
notes: also called 第四株RBD纳米抗体S1-24
B3: S1-51 (VHH)
VHH: QVQLQESGGGLVQSGGSLRLSCAASGGVSRLNSMGWYRQAPGKQRELVATIISDVGTNYADSVKGRFTISRDNAANTVYLQMNSLKFEDTAVYYCVADRAFVLRGEYEYWGQGTQVTVSS
notes: also called 第三株RBD纳米抗体S1-51
B4: S1-28 (VHH)
VHH: QVQLQESGGGLVQPGGSLRLSCTASGGIIRLNSMGWYRQAPGKQREPVATIVSDVGTNYADSVKGRFTISRDNAKNTIYLQMNSPKFEDTAVYYCVADRAFVLRGEYEYWGQGTQVTVSS
notes: also called 第二株RBD纳米抗体S1-28

What was measured:
[1] = molecular target: T1, SARS-CoV-2 印度delta突变型S1抗原 (SARS-CoV-2 delta variant, UniProt P0DTC2 16-685); experiment: SPR, Biacore T200, antigen coupled to CM5 chip, nanobody as analyte
T1 construct: domain: S1; also called delta突变体抗原; delta变异突变株

[2] = molecular target: T2, SARS-CoV-2 南非beta突变型S1抗原 (SARS-CoV-2 beta variant, UniProt P0DTC2 16-685); experiment: as above
T2 construct: domain: S1; also called beta突变体抗原; beta变异突变株

| Binder | Kd [1] | Kd [2] |
| --- | --- | --- |
| B1 | ~0.1 nM | ~0.1 nM |
| B2 | ~0.1 nM | ~0.1 nM |
| B3 | ~0.1 nM | ~0.1 nM |
| B4 | ~0.1 nM | ~0.1 nM |
